Molecular target: EWS low-complexity domain (EWS^LCD, EWS 1-264) (human) (UniProt Q01844)
Assay: co-sedimentation

Chain of EWS low-complexity domain (EWS^LCD, EWS 1-264) (human) (Q01844 1-264, one chain of several): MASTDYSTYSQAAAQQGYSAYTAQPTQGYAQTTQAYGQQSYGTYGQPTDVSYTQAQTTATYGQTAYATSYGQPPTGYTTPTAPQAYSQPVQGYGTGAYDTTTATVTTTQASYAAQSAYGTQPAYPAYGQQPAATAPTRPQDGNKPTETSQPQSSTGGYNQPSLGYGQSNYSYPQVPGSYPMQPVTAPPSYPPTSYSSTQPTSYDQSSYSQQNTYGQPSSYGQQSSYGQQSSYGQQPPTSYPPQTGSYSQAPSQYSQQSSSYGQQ

Question: How did the percent of total FLI1^DBD in the pellet fraction turn out when “FLI1 DNA-binding domain (FLI1^DBD) (domain or fragment)” was run?
Answer: The percent of total FLI1^DBD in the pellet fraction was 55%.

— doi:10.1101/2022.06.04.494830
